Laboratory results taken from the supplement of paper PMC12764529.
± gives the half width of the 95% confidence interval.

How the values were obtained:
[1] = folding stability dG unfold from trypsin proteolysis; higher = more stable
Procedure, shortened: (§1)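 How resistant each design was to proteolysis was captured as K50, inferred by Bayesian fitting of sequencing counts. Unfolding free energy was then derived relative to a sequence-predicted unfolded-state K50 and a shared folded-state K50, per protease or combined. Digestion used trypsin and chymotrypsin at 11 threefold-diluted concentrations plus a no-protease condition, on mini-proteins under 80 residues without cysteine in a PA-tagged cDNA display construct. Designs were kept only when AlphaFold2 dimer inter-PAE was above 15.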

[2] = folding stability dG unfold (combined trypsin and chymotrypsin); higher = more stable
Procedure, shortened: as §1

[3] = folding stability dG unfold from chymotrypsin proteolysis; higher = more stable
Procedure, shortened: as §1

Sequence | folding stability dG unfold [1] [kJ/mol] | folding stability dG unfold [2] [kJ/mol] | folding stability dG unfold [3] [kJ/mol]
SAKKTVKLKIEIYKVKVEKLKDGKEKITEVEKIAELEIEAEVDEDGKVTIRIDGKEIEVPAGTSLEELLSAG [r14_909_TrROS_Hall] | 9.3 ± 0.711 | 11.5 ± 0.753 | 12.8 ± 0.502
SAKKVKIEIKNKETNKIYTIEIKEDGKVTIKNKETGEEIEVEINGKKITFPPGASIDEIIKKLEEALKKSAG [r14_561_TrROS_Hall] | 7.2 ± 0.669 | 10.7 ± 1.3 | 11.6 ± 0.502
SAKKYIIRVKVKINGKEYEIEIEADSLEEALAKLKEELKKLFPGEKIEEVKIEVYDAKTGEKKEITLKLSAG [r14_54_TrROS_Hall] | 11.5 ± 0.502 | 16.7 ± 1.46 | 17.6 ± 0.669
SAKPVAEGPIRIPNGFEIEITQIKPDKENGEIVIPIEIEMWRPERDPEDPNQPKWEPQEMNIAFTIPLDSAG [r14_888_TrROS] | 5.43 ± 0.586 | 3.58 ± 0.92 | 0.5 ± 3.39
SAKRVNVEIWIPGDWDEIQEIAEDINFPVEIERNPDKPDMYRITFTFPTPEKAPKILDALNKHGMQIEISAG [r14_745_TrROS] | 5.58 ± 0.264 | 6.86 ± 0.711 | 7.89 ± 0.339
SAKTKTIEIEVKIKLIEIDPKTGKKTEKEFTAKATITYDEENNVVTIKIEFKDNGKTITITLPPGAKIKSAG [r14_587_TrROS_Hall] | 8.79 ± 0.41 | 9.46 ± 1.13 | 9.4 ± 0.586
SAKVVIIKVKSPEELKAAIEELKKKLPEGAVIYIVNEDGSVYKITFDKKTGKVKIEKVKSLEELKKLLKSAG [r14_913_TrROS_Hall] | 9.67 ± 0.226 | 14.5 ± 0.586 | 16.6 ± 0.36
SALLEPLLLEVYIPATGEVITVPAKSLEEAEAIIAEVRADPTVASVRITLPDGTVVEVSFNVSPAAYLKSAG [r14_747_JUSTAS] | 1.76 ± 0.502 | 1.27 ± 0.837 | 0.544 ± 0.669
SALSASELAKRVRDRIKELSNEEGYNVDIKVDVQPNEDGSVTVHIQFDSPWMIKRIKEKLPPGVNVEIMSAG [r14_491_TrROS] | 13.2 ± 0.305 | 11.5 ± 0.209 | 10.13 ± 0.0879
SAMDIGPEERAELLLRTLANIAKEEIEKGDLEKAKIFVINGIAEENPPLAERILKEAKELGLPVIILPESAG [r14_908_TrMRF] | 2.76 ± 0.418 | 4.1 ± 0.247 | 4.74 ± 0.318
SAMEKGKALKYREVIPLPDGPVELEIIYFPETGEYVAIIRNPSTGEKVEIPFKFDSLEDAVKAAKDFVASAG [r14_65_TrMRF] | 8.61 ± 0.46 | 13.8 ± 0.318 | 15.5 ± 0.121
SAMEKPLETLEIPIPGLPVTVKITIYPSHIEKAKESGIPEITVEALLTIELPDGSKVEKKIPLTVKIPGSAG [r14_100_JUSTAS] | 6.62 ± 0.18 | 6.74 ± 0.46 | 6.99 ± 0.176
SAMIEVINATDPVTGKPYTITREGEGITVTDPETGKTYAATKDGDTITLDAGDTPLTLTPVSTVPESLLSAG [r14_208_JUSTAS] | 3.51 ± 0.172 | 4.21 ± 0.418 | 4.14 ± 0.669
SAMIIVAMAPDRMLIIGPDGRVLVVDDPEKAIELIKELFPVPIIVIPVPEDSPVFRELLERLERERTGESAG [r14_235_TrMRF] | 11.3 ± 0.335 | 12.2 ± 0.586 | 13.3 ± 0.46
SAMITVEIVDPLPDIANLSEEEAKALAEELAEEYAKKKFPNENVKITKVEVELEPETPEIRVTVTLELKSAG [r14_310_JUSTAS] | 8.75 ± 0.669 | 9.91 ± 0.628 | 10.7 ± 0.347
SAMIVKDLKTKEEIKKVLEEIAKKLGYPNVTPEEAEEILKKIGVKILSIEKNPKNPEKYIIKIKIEKPKSAG [r14_678_JUSTAS] | 9.34 ± 0.418 | 9.57 ± 0.586 | 9.8 ± 0.138

Sequence | folding stability dG unfold [1] [kJ/mol] | folding stability dG unfold [2] [kJ/mol] | folding stability dG unfold [3] [kJ/mol]
SAMIVVTLTINPITGKPILIFDPGVGVYAIDPETGEPHEATVDGDTLTLNFGNRPILLTPEAVIPPEELSAG [r14_208_TrMRF] | 3.93 ± 0.0711 | 5.05 ± 0.28 | 5.91 ± 0.331
SAMKFKKGAKIEIEVEKVEEKEIDGKTVAVYRMKIKIEVDGKKYEIEVEIYYDKETKEWKIVKVEIKEVSAG [r14_293_TrROS_Hall] | 14.9 ± 1.38 | 13.9 ± 0.795 | 13.1 ± 0.192
SAMKIAKVTYEPVKVDGKELLLFKVEIVHSETGEKEEKTFLTEDPEDFIENLLKHPDIDIVEILEFKEGSAG [r14_464_TrMRF] | 9.69 ± 0.544 | 13.4 ± 0.347 | 14.4 ± 0.276
SAMKIIIKLPKNVKPIKAEELEKIPGIKVVKIEIYKGEDGVYYLLIEIEESIPPEKLKELEEKIREIAGSAG [r14_421_TrMRF] | 18.6 ± 1.17 | 24.3 ± 1.72 | 22.7 ± 0.628
SAMKIKPGEKVKIKIEVKNKKTKKKKTIEIEVPVDEETGEVFTEDELKKLLEKLGIEVEEVKIVEIEKESAG [r14_93_TrROS_Hall] | 3.71 ± 0.197 | 3.18 ± 0.879 | 2.51 ± 0.628
SAMKKGEKVKVTLEIEVNGKKYKIELVYDKENNTYTIKIKNEKTGETKTIEVKAKTKEEALEAAKKLLESAG [r14_65_TrROS_Hall] | 8.19 ± 0.318 | 10.1 ± 0.669 | 10.7 ± 0.146
SAMKLPKDVEIKEIKFDPEKTVTIKIKVKKYDFFIYDPETGKVIVIKPGEEKEITLPANIPLLIFAIKPSAG [r14_385_TrMRF] | 9.06 ± 0.385 | 9.05 ± 0.962 | 7.97 ± 0.41
SAMKLSPELLKKLGLSKEDIKEIEIEVEPVPELSEEDLKKKNVTVYKVKIKIKVNGKEYEVELLFVEPKSAG [r14_483_TrROS_Hall] | 7.68 ± 0.293 | 9.13 ± 0.628 | 10.4 ± 0.753
SAMKPKEVVIEISVEELRKLAKELFPEKELTLEELKNLVKELLEKLGIKVKKVEIVKVDPEKKRIVIKVSAG [r14_303_TrROS_Hall] | 11.6 ± 0.628 | 8.46 ± 0.879 | 7.21 ± 0.347
SAMKTIEIEIELDELKNLTPEELEEKAKELAEELAKKLAEEKGLEVVSVKVEVVEKDGKLVVKVTVEVKSAG [r14_310_TrROS_Hall] | 15 ± 1 | 15.3 ± 2.97 | 11.8 ± 1.09
SAMKVEKLEELPDKEILKVEATPEELRKIVEELAKANPGYEVSYKILEEEPIALITLTPIPKGPKENLVSAG [r14_600_JUSTAS] | 4.51 ± 0.251 | 3.33 ± 0.544 | 0.0729 ± 0.837
SAMKVKVIVINPDGKPQEFEFEAEEGDPEKLVEEVEAEIKKLHPNSDIKFKAEVLEVKPDGEITILVSDSAG [r14_622_TrMRF] | 8.48 ± 0.795 | 10.5 ± 0.586 | 11.6 ± 0.209
SAMKVTVKPTTLPDGTTVVVTTEPDKIVAYGTYNGDSFTSESLPDGTVVTTAKKPGGVLVTSPTDPNLESAG [r14_213_JUSTAS] | 1.09 ± 0.0837 | 1.11 ± 0.31 | 0.47 ± 0.586
SAMKVYEIPIEIPISKYKPSDIIAALKKALDKLNIPFPEEIIKELTIISIKTGGNISTAIKTLLENGLLSAG [r14_364_TrMRF] | 7.09 ± 0.502 | 6.51 ± 0.711 | 5.41 ± 0.402
SAMKVYIAASSPEEIEGWIEEARKAGIDGPELIFVSPDDRVYKAEIIPNTGEVKIEPVKPIEELLKELPSAG [r14_913_TrMRF] | 4.55 ± 0.46 | 4 ± 1.42 | 3.3 ± 1.67
